From US20240218052A1

B1: SKD chimeric bovine-human IgG1 (ultralong CDR3) (antibody)
VH: QVQLRESGPSLVKPSQTLSLTCTASGFSLSDKAVGWVRQAPGKALEWLGSIDTGGNTGYNPGLKSRLSITKDNSKSQVSLSVSSVTTEDSATYYCTTVHQRTSEKRSCPGGSSRRYPSGASCDVSGGACACYVSNCRGVLCPTLNEIVAYTYEWHVDAWGQGLLVTVSS
VL: QAVLNQPSSVSGSLGQRVSITCSGSSSNVGNGYVSWYQLIPGSAPRTLIYGDTSRASGVPDRFSGSRSGNTATLTISSLQAEDEADYFCASAEDSSSNAVFGSGTTLTVL
B2: SKM chimeric bovine-human IgG1 (ultralong CDR3) (antibody)
VH: QVQLRESGPSLVKPSQTLSLTCTASGFSLSDKAVGWVRQAPGKALEWLGSIDTGGNTGYNPGLKSRLSITKDNSKSQVSLSVSSVTTEDSATYYCTTVHQETLRSCPDGYIDNSGCTADWGCAALDCWRRRFGYHSTDPSHYTGATYIYTYSLHIDAWGQGLLVTVSS
VL: QAVLNQPSSVSGSLGQRVSITCSGSSSNVGNGYVSWYQLIPGSAPRTLIYGDTSRASGVPDRFSGSRSGNTATLTISSLQAEDEADYFCASAEDSSSNAVFGSGTTLTVL

Target: SARS CoV-2 parental (Wuhan-Hu-1) receptor binding domain (RBD) protein, amino acids 319 to 541 of th (SARS-CoV-2, Wuhan-Hu-1 isolate), P0DTC2
Assay: ELISA, antigen coated, chimeric IgG1 titrated, anti-human Fc-HRP
Details: remark: other sources report otherwise

Binder | EC50
B1 | 0.19 nM
B2 | 0.24 nM
